Laboratory results reported in article PMC2835748.

System: GST-PTB (polypyrimidine tract binding protein)
Experiment: EMSA
Conditions: EMSA: 85 nM RNA, 50 mM HEPES pH 7.6, 25 mM KCl, 2.5 mM MgCl2, 1 mM DTT, 4% glycerol, 0.67 ug/ul yeast tRNA, 10 min at 30 C; 4% native gel with 5% glycerol

Substance	binding signal (relative affinity (reference))	binding signal (relative to 1-245)
FCV gRNA 1-245	1	
FCV gRNA 1-202 WT		1
